Measured values from patent US20170145086A1 (VISTERRA, published 2017).

T1: HA-GCN4 mAPRIL (amino acid residues 96-241) (mouse, UniProt Q9D777 96-241, Assembles as a homotrimer through the GCN4 zipper; one protomer is given.)
T1 construct: Bought (R&D Systems); also called HA-tagged mouse APRIL (R&D Systems); recombinant mouse APRIL; not shown: N-terminal HA tag and GCN4 isoleucine-zipper trimerisation domain, with any linker, of the bought R&D Systems protein
T1 sequence: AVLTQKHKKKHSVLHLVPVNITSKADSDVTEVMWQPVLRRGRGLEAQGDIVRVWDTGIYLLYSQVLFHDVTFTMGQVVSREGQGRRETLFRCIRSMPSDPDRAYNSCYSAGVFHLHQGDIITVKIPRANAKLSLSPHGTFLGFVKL

T2: HA-GCN4 hAPRIL (amino acid residues 105-250) (human, UniProt O75888 105-250)
T2 construct: Bought (R&D Systems); also called HA-tagged GCN4 human APRIL; HA-GCN4-huAPRIL; not shown: N-terminal HA tag; GCN4 isoleucine zipper oligomerization domain
T2 sequence: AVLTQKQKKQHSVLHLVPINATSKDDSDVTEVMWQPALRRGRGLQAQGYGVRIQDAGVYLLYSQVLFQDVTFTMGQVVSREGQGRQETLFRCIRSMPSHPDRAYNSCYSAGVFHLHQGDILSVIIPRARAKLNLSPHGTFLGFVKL

B1: monoclonal antibody 3530 (antibody, mouse IgG2, V domains shown)
VH: QVQLQQSGAELVRPGASVKLSCKASGYTFTDHEMHWVRQTPVHGLEWIGVIDPDTGDTTYNQKFKGKATLTADKSSSTAYMDLRSLTSEDSAVFYCTRWTGGDYWGHGTTLTVSS
VL: DAVMTQTPLSLSVTIGQPASISCKSSQSLLYSDGKTYLNWFQQRPGQSPKRLMYQVSKLDPGIPDRFSGSGSETDFTLKISRVEAEDLGVYYCLQGTYYPYTFGSGTKLEIK
B2: monoclonal antibody 4540 (antibody, V domains shown)
VH: QVQLQQSGPELVKPGASVKISCKASGYTFADYYINWVKQRPGQGLEWIGWIFPGSGSTYYNEKFKGKATLTVDKSSSTAYMLLSSLTSEDSAVYFCARGDSGRAMDYWGQGTSVTVSS
VL: DIQMTQSPSSLSASLGGKVTITCKASQDINKYIAWYQHKPGKGPRLLIHYTSTLQSGIPSRFSGSGSGRDYSFSISNLEPEDNATYYCLQYDNLLTFGAGTKLELK
notes: mouse-derived
B3: monoclonal antibody 2218 (antibody, mouse IgG2, V domains shown)
VH: DVQLQESGPGLVKPSQSLSLTCSVTGYSITSGYYWNWIRQFPGNKLEWMGYISYDGYNNYNPSLKNRISITRDTSKNQFFLKLNSVTTEDTATYYCANYYDYEDWYFGVWGTGTTVTVSS
VL: DIVLTQSPASLAMSLGKRATISCRASESVSIIGTNSIHWYQQKPGQPPKLLIYHASNLETGVPARFSGSGSRTDFTLTIDPVEEDDVAIYYCLQSRKIPYTFGGGTKLEIK

How the values were obtained:
[1] = target: T1, HA-GCN4 mAPRIL (amino acid residues …); assay: blocking ELISA; blocked: mouse APRIL binding to human BCMA-Fc
Experimental: Recombinant TACI-Fc or BCMA-Fc was coated on 96 well plates in 0.1 M carbonate-bicarbonate buffer (pH 9.6), overnight at 4° C. Plates were washed three times with 1×PBST (PBS+0.025% Tween 20) followed by blocking with 1% BSA in 1×PBS, 37° C. for 1 hour. All subsequent wash steps were carried out with 1×PBST. To assess antibody blocking, either 15 ng/mL or 50 ng/mL HA-GCN4-huAPRIL was preincubated with varying antibody concentrations ranging from 0.03-30 μg/mL in binding buffer comprised of 1% BSA and 0.025% Tween-20 in 1×PBS. Preincubation was carried out at 30° C. for 1 hour with mixing. Antibody-APRIL premix with 50 ng/mL APRIL or 15 ng/mL APRIL was then added to TACI-Fc coated or BCMA-Fc coated plates, respectively, and incubated for an additional hour at 30° C. HA-tagged APRIL binding to either receptor was quantified using a goat polyclonal anti-HA tag-HRP antibody (Abcam) added at a 1:10000 dilution followed by colorimetric development using 100 μl/well of freshly prepared TMB substrate (KPL) carried out for up to 30 minutes at room temperature before quenching enzymatic reaction by the addition of 1N sulfuric acid. ELISA signal was quantified by absorbance at 450 nm. ELISA data was analyzed by non-linear regression. IC₅₀ values were calculated based on a 4 parameter fit of antibody titration curves. […]

[2] = target: T2, HA-GCN4 hAPRIL (amino acid residues …); assay: blocking ELISA; blocked: human APRIL binding to human TACI-Fc; parameters: concentration or dose not given beside the values
Experimental: Recombinant TACI-Fc or BCMA-Fc was coated on 96 well plates in 0.1 M carbonate-bicarbonate buffer (pH 9.6), overnight at 4° C. Plates were washed three times with 1×PBST (PBS+0.025% Tween 20) followed by blocking with 1% BSA in 1×PBS, 37° C. for 1 hour. All subsequent wash steps were carried out with 1×PBST. To assess antibody blocking, either 15 ng/mL or 50 ng/mL HA-GCN4-huAPRIL was preincubated with varying antibody concentrations ranging from 0.03-30 μg/mL in binding buffer comprised of 1% BSA and 0.025% Tween-20 in 1×PBS. Preincubation was carried out at 30° C. for 1 hour with mixing. Antibody-APRIL premix with 50 ng/mL APRIL or 15 ng/mL APRIL was then added to TACI-Fc coated or BCMA-Fc coated plates, respectively, and incubated for an additional hour at 30° C. HA-tagged APRIL binding to either receptor was quantified using a goat polyclonal anti-HA tag-HRP antibody (Abcam) added at a 1:10000 dilution followed by colorimetric development using 100 μl/well of freshly prepared TMB substrate (KPL) carried out for up to 30 minutes at room temperature before quenching enzymatic reaction by the addition of 1N sulfuric acid. ELISA signal was quantified by absorbance at 450 nm. ELISA data was analyzed by non-linear regression. IC₅₀ values were calculated based on a 4 parameter fit of antibody titration curves. […] Non-blocking antibodies Aprly-1 or Aprly-5 (Enzo Biosciences) were used as negative controls. Mouse specific, blocking antibody aprily-1-1 (Adipogen) was generally used as a positive control in experiments using mouse APRIL (HA-GCN4-mAPRIL).

[3] = target: T2, HA-GCN4 hAPRIL (amino acid residues …); assay: indirect ELISA on human APRIL; row printed 4504, legend paragraph 738 says 4540
[4] = target: T2, HA-GCN4 hAPRIL (amino acid residues …); assay: cell-based or functional assay
[5] = target: T1, HA-GCN4 mAPRIL (amino acid residues …); assay: indirect ELISA on mouse APRIL; row printed 4504, legend paragraph 738 says 4540
[6] = target: T2, HA-GCN4 hAPRIL (amino acid residues …); assay: blocking ELISA; blocked: human APRIL binding to BCMA-Fc
In short: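 HA-GCN4-tagged human APRIL (15 ng/mL) preincubated 1 h at 30 °C with antibody (0.03–30 μg/mL), then added 1 h at 30 °C to plates coated with BCMA-Fc. Bound APRIL detected with anti-HA-HRP/TMB at 450 nm; IC₅₀ from 4-parameter fit of antibody titration curves.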

[7] = target: T2, HA-GCN4 hAPRIL (amino acid residues …); assay: blocking ELISA; blocked: human APRIL binding to TACI-Fc
[8] = target: T2, HA-GCN4 hAPRIL (amino acid residues …); assay: indirect ELISA on coated HA-GCN4 human APRIL; EC50 from non-linear regression
Text: Purified antibodies were further characterized for APRIL binding, APRIL species cross reactivity (human APRIL vs. mouse APRIL), and receptor blocking activity using TACI-Fc. For binding, an APRIL-based indirect ELISA was used to determine by first approximation the relative affinity of purified anti-APRIL antibodies to either human APRIL or mouse APRIL. ELISA method was as generally described above. […] Blocking and wash steps were completed as described. Binding of anti-APRIL antibodies to APRIL was quantified using an 8 point dilution of test antibody that spanned over a four log scale. Antibody binding to APRIL was detected using a rabbit anti-mouse IgG (H+L)-HRP conjugate (Jackson ImmunoResearch Laboratories). Antibody binding data was analyzed by non-linear regression analysis using a 3 parameter fit to determine max binding and apparent EC₅₀ values. […] Mouse specific antibody Apry-1-1 (Adipogen) was likewise used for quantification of antibody binding to mouse APRIL.

Row | Binder | IC50 (read off the curve) [1] [µg/mL] | % Inhibition [2] [%] | EC50 [3] [nM] | IC50 (inhibition of APRIL-mediated BCMA NFκB signaling) [4] [nM] | IC50 (inhibition of APRIL-mediated TACI NFκB signaling) [4] [nM] | EC50 [5] [nM] | IC50 [6] [nM] | Relative Activity (normalised to 2419) [6] | IC50 [7] [nM] | Relative Activity (normalised to 2419) [7] | EC50 [8] [nM]
1 | B1 | ~0.3 | 81 | – | – | – | – | – | – | – | – | –
2 | B2 | – | – | 0.00139 | ~0.81 | ~2.25 | 0.00151 | 0.67 | 2.85 | 0.4 | 1.45 | –
3 | B3 | – | 91 | – | – | – | – | – | – | – | – | < 0.2
